B1: bovine tumor necrosis factor-alpha (TNF-alpha) (ligand, UniProt Q06599 78-234, looked up)
chain: LRSSSQASSNKPVAHVVADINSPGQLRWWDSYANALMANGVKLEDNQLVVPADGLYLIYSQVLFRGQGCPSTPLFLTHTISRIAVSYQTKVNILSAIKSPCHRETPEWAEAKPWYEPIYQGGVFQLEKGDRLSAEINLPDYLDYAESGQVYFGIIAL
notes: Not purified; The whey samples served as the source of bovine TNF-alpha; also called bovine TNF-α; bovine TNF
B2: soluble bovine tumor necrosis factor receptor-I (TNF-RI) (receptor)
chain: LVPHPGDLEKRESPCPQGKYNHPQNSTICCTKCHKGTYLYNDCPGPGRDTDCRVCAPGTYTALENHLRRCLSCSRCRDEMFQVEISPCVVDRDTVCGCRKNQYREYWGETGFRCLNCSLCPNGTVNIPCQERQDTICHCHMGFFLKGAKCISCHDCKNKECEKLCPTRPSTGKDSQDPGTT

Columns and labels:
[1] = molecular target: B2; assay: inferred from the TNF cytotoxicity inhibition assay on WEHI 164 cells; no direct binding assay
[2] = molecular target: B1; assay: cell-based or functional assay

B1
binding result [1]: binds

B2
fold potency at blocking bovine TNF-α, against MAb BC9 [2]: > 2 fold (vs MAb BC9)

— patent US20020076765A1 (IOWA STATE UNIVERSITY RESEARCH FOUNDATION, published 2002)
